Reference: patent publication US11999805

Columns and labels:
[1] = target: Many MPs
[2] = target: T1, Peptide 15
T1 chain: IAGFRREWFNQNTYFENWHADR

[3] = target: T2, Peptide 99
T2 chain: RRSHIAWLLAMSLTWYS

[4] = target: SpyCas9 (S. pyogenes), Q99ZW2; experiment: cell-based or functional assay
[5] = target: T3, Peptide 60
T3 chain: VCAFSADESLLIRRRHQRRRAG

[6] = target: T4, Peptide 90
T4 chain: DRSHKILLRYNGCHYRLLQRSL

[7] = target: T5, Peptide 91
T5 chain: VYDFYRMLSHFFLKGPSR

B1: CjeCas9 (protein)
chain: MARILAFDIGISSIGWAFSENDELKDCGVRIFTKVENPKTGESLALPRRLARSARKRLARRKARLNHLKHLIANEFKLNYEDYQSFDESLAKAYKGSLISPYELRFRALNELLSKQDFARVILHIAKRRGYDDIKNSDDKEKGAILKAIKQNEEKLANYQSVGEYLYKEYFQKFKENSKEFTNVRNKKESYERCIAQSFLKDELKLIFKKQREFGFSFSKKFEEEVLSVAFYKRALKDFSHLVGNCSFFTDEKRAPKNSPLAFMFVALTRIINLLNNLKNTEGILYTKDDLNALLNEVLKNGTLTYKQTKKLLGLSDDYEFKGEKGTYFIEFKKYKEFIKALGEHNLSQDDLNEIAKDITLIKDEIKLKKALAKYDLNQNQIDSLSKLEFKDHLNISFKALKLVTPLMLEGKKYDEACNELNLKVAINEDKKDFLPAFNETYYKDEVTNPVVLRAIKEYRKVLNALLKKYGKVHKINIELAREVGKNHSQRAKIEKEQNENYKAKKDAELECEKLGLKINSKNILKLRLFKEQKEFCAYSGEKIKISDLQDEKMLEIDHIYPYSRSFDDSYMNKVLVFTKQNQEKLNQTPFEAFGNDSAKWQKIEVLAKNLPTKKQKRILDKNYKDKEQKNFKDRNLNDTRYIARLVLNYTKDYLDFLPLSDDENTKLNDTQKGSKVHVEAKSGMLTSALRHTWGFSAKDRNNHLHHAIDAVIIAYANNSIVKAFSDFKKEQESNSAELYAKKISELDYKNKRKFFEPFSGFRQKVLDKIDEIFVSKPERKKPSGALHEETFRKEEEFYQSYGGKEGVLKALELGKIRKVNGKIVKNGDMFRVDIFKHKKTNKFYAVPIYTMDFALKVLPNKAVARSKKGEIKDWILMDENYEFCFSLYKDSLILIQTKDMQEPEFVYYNAFTSSTVSLIVSKHDNKFETLSKNQKILFKNANEKEVIAKSIGIQNLKVFEKYIVSALGEVTKAEFRQREDFKK
Q: What does the source list for B1?
A: reduction in cleavage-based fluorescence at 200 µM peptide, FRET assay [1]: Many MPs also reduced SauCas9 and CjeCas9 mediated cleavage at 200 µM with a greater than 80% reduction in fluorescence; % activity, FRET cleavage assay [2]: Peptide15 significantly reduced activity of CjeCas9 and SpyCas9 and SauCas9 at 200 µM (P<0.01); % activity, FRET cleavage assay [3]: Peptide 99 significantly reduced activity of all three Cas9 variants at 100 and 200 µM (P<0.005)

B2: Peptide 60 (peptide)
peptide: VCAFSADESLLIRRRHQRRRAG
modifications: not checked
Q: How did the IC50(uM), FRET cleavage assay [4] turn out when B2 was run?
A: 92.2 µM

Q: And the reduced editing (compared to plasmid control), A549 GFP reporter cells [4]?
A: 30%

B3: Peptide 63 (peptide)
peptide: LNVKIGNAHLTTIMSTMPLVLC
modifications: not checked
Q: B3 was tested. Which IC50(uM), FRET cleavage assay [4] did it give?
A: 97.9 µM

B4: Peptide 90 (peptide)
peptide: DRSHKILLRYNGCHYRLLQRSL
modifications: not checked
Q: B4 was tested. Which IC50(uM), FRET cleavage assay [4] did it give?
A: 114 µM

Q: And the reduced editing (compared to plasmid control), A549 GFP reporter cells [4]?
A: 35%

B5: Peptide 99 (peptide)
peptide: RRSHIAWLLAMSLTWYS
modifications: not checked
Q: For B5, which IC50(uM), FRET cleavage assay [4] is on record?
A: 48.5 µM

B6: Peptide 15 (peptide)
peptide: IAGFRREWFNQNTYFENWHADR
modifications: not checked
Q: B6 was tested. Which reduced editing (compared to plasmid control), A549 GFP reporter cells [4] did it give?
A: 21%

B7: SauCas9 (protein)
chain: MKRNYILGLDIGITSVGYGIIDYETRDVIDAGVRLFKEANVENNEGRRSKRGARRLKRRRRHRIQRVKKLLFDYNLLTDHSELSGINPYEARVKGLSQKLSEEEFSAALLHLAKRRGVHNVNEVEEDTGNELSTKEQISRNSKALEEKYVAELQLERLKKDGEVRGSINRFKTSDYVKEAKQLLKVQKAYHQLDQSFIDTYIDLLETRRTYYEGPGEGSPFGWKDIKEWYEMLMGHCTYFPEELRSVKYAYNADLYNALNDLNNLVITRDENEKLEYYEKFQIIENVFKQKKKPTLKQIAKEILVNEEDIKGYRVTSTGKPEFTNLKVYHDIKDITARKEIIENAELLDQIAKILTIYQSSEDIQEELTNLNSELTQEEIEQISNLKGYTGTHNLSLKAINLILDELWHTNDNQIAIFNRLKLVPKKVDLSQQKEIPTTLVDDFILSPVVKRSFIQSIKVINAIIKKYGLPNDIIIELAREKNSKDAQKMINEMQKRNRQTNERIEEIIRTTGKENAKYLIEKIKLHDMQEGKCLYSLEAIPLEDLLNNPFNYEVDHIIPRSVSFDNSFNNKVLVKQEENSKKGNRTPFQYLSSSDSKISYETFKKHILNLAKGKGRISKTKKEYLLEERDINRFSVQKDFINRNLVDTRYATRGLMNLLRSYFRVNNLDVKVKSINGGFTSFLRRKWKFKKERNKGYKHHAEDALIIANADFIFKEWKKLDKAKKVMENQMFEEKQAESMPEIETEQEYKEIFITPHQIKHIKDFKDYKYSHRVDKKPNRELINDTLYSTRKDDKGNTLIVNNLNGLYDKDNDKLKKLINKSPEKLLMYHHDPQTYQKLKLIMEQYGDEKNPLYKYYEETGNYLTKYSKKDNGPVIKKIKYYGNKLNAHLDITDDYPNSRNKVVKLSLKPYRFDVYLDNGVYKFVTVKNLDVIKKENYYEVNSKCYEEAKKLKKISNQAEFIASFYNNDLIKINGELYRVIGVNNDLLNRIEVNMIDITYREYLENMNDKRPPRIIKTIASKTQSIKKYSTDILGNLYEVKSKKHPQIIKKG
Q: How did the “reduction in cleavage-based fluorescence at 200 µM peptide, FRET assay” value [1] turn out when B7 was run?
A: Many MPs also reduced SauCas9 and CjeCas9 mediated cleavage at 200 µM with a greater than 80% reduction in fluorescence

Q: What about the “% activity, FRET cleavage assay” value [2] of the same binder?
A: Peptide15 significantly reduced activity of CjeCas9 and SpyCas9 and SauCas9 at 200 µM (P<0.01)

Q: What about the “% activity, FRET cleavage assay” value [5] of the same binder?
A: Peptide 60, 90, and 91 significantly reduced activity of SauCas9 and SpyCas9 at 200 µM (P<0.005)

Q: And the “% activity, FRET cleavage assay” value [6]?
A: Peptide 60, 90, and 91 significantly reduced activity of SauCas9 and SpyCas9 at 200 µM (P<0.005)

Q: What about the “% activity, FRET cleavage assay” value [7] of the same binder?
A: Peptide 60, 90, and 91 significantly reduced activity of SauCas9 and SpyCas9 at 200 µM (P<0.005)

Q: What about the “% activity, FRET cleavage assay” value [3] of the same binder?
A: Peptide 99 significantly reduced activity of all three Cas9 variants at 100 and 200 µM (P<0.005)

B8: Peptide 82 (peptide)
peptide: KERRRSLMQLSVKSNSLFLGGT
modifications: not checked
Q: With B8 as the binder, how does the IC50(uM), FRET cleavage assay [4] read?
A: > 200 µM

B9: Peptide 50 (peptide)
peptide: LYYRIMLSCPKYYPCELVGHTS
modifications: not checked
Q: What does the source list for B9?
A: IC50(uM), FRET cleavage assay [4]: 145 µM; reduced editing (compared to plasmid control), A549 GFP reporter cells [4]: 30%
